Reference: US20240117334A1, “FACTOR B PROTEASES” (Vertex Pharmaceuticals Incorporated, priority 2021, published 2024)
Numbering of substitutions follows the chain as printed. In names and notes the source's numbering stands. Several values for one entry are separate records, joined by “and”; a condition that tells them apart may be missing. Identical values can stand only once. Like-named read-outs stand apart in the source and are kept apart here.

B1: Wild type or naturally occurring chymase: wild type human mast cell chymase protease domain (SEQ ID NO: 6) (protein, listed as Homo sapiens)
chain: IIGGTECKPHSRPYMAYLEIVTSNGPSKFCGGFLIRRNFVLTAAHCAGRSITVTLGAHNITEEEDTWQKLEVIKQFRHPKYNTSTLHHDIMLLKLKEKASLTLAVGTLPFPSQFNFVPPGRMCRVAGWGRTGVLKPGSDTLQEVKLRLMDPQACSHFRDFDHNLQLCVGNPRKTKSAFKGDSGGPLLCAGVAQGIVSYGRSDAKPPAVFTRISHYRPWINQILQAN
B2: C22S/F173Y/D175N/A226R: chymase-based engineered protease (protein, listed as Homo sapiens)
chain: B1 chain with C7S, F157Y, D159N, A207R

Assays:
[1] = Baseline stability in indirect and MTSP buffer (+/-EDTA) and PBS at 37° C., peptide substrate EGVDAE-QF; type: physicochemical; settings: indirect buffer pH 7.4, MTSP buffer
Method: Further, various chymase-based engineered proteases were tested to evaluate their baseline stability, by testing the effects of indirect and MTSP buffer (+/−EDTA) on the chymase-based engineered proteases. The peptide substrate EGVDAE-QF (SEQ ID NO: 52) was used for these experiments.
FIGS. 4A-4E depict graphs showing the stability of five different chymase proteases tested using a peptide substrate, in PBS, at 37° C.

[2] = biological target: T1, Human Factor B (Homo sapiens, UniProt P00751); experiment: Human Factor B cleavage EC50 in 80% human plasma (Table 10A); type: biochemical
Method: Cleavage of Factor B by various engineered proteases was evaluated. Engineered chymase-, MTSP-1-, and uPA-based proteases were tested. All references in this Example, including Tables 10A, 10B, 11A, and 11B, to engineered proteases are depicted in chymotrypsin numbering. The chymotrypsin numbering key for the modified protease domains of engineered proteases are found in Tables 2, 4, and 6 for uPA, MTSP-1, and chymase, respectively. These experiments were also performed to evaluate the stability of non-naturally occurring chymases in various media, including cynomolgus monkey vitreous humor, human plasma, and phosphate buffered saline (PBS). Briefly, Factor B was diluted into an assay buffer and incubated at 37° C. with naturally occurring (wild type) and non-naturally occurring (engineered) proteases in vitreous humor, plasma, or PBS, and the reactions were quenched with HCl at various time points. The time points tested for chymase include T=0 which used 6 hours pre-incubation, T=2 hours which used 4 hours pre-incubation, T=4 hours which used 2 hours pre-incubation, and T=6 hours which used 0 hours pre-incubation. Assaying of the sample was performed with ELISA, or alpha screen for human C3 cleavage, using standard protocols.
A summary of the results is presented in Tables 10A-10B below, showing the various tested proteases, the concentration of the protease used in nM and the EC50 of human Factor B cleavage. Table 10 presents human Factor B cleavage by various non-naturally occurring chymase-based engineered proteases, tested in 80% human plasma, compared against a chymase comprising the mutation string […]. Blank cells indicate that a test was not performed for a particular protease mutation string.

[3] = biological target: T1, Human Factor B; experiment: as above; type: biochemical; settings: chymase-based; 64% plasma; read-out: fB Cleavage, 64% plasma EC50
[4] = Half-life in 50% human plasma of chymase-based engineered proteases; type: in vitro ADME; settings: EGVD′AE substrate
Method: Table 10B presents human Factor B cleavage by various engineered chymase-, MTSP-1-, or uPA-based proteases, tested in mouse or human plasma. For ELISA analysis of Factor B cleavage, briefly, anti-Ba was used, and Bb was detected with anti-Bb. A dynamic range of 25-1600 pM was used. Half-life in 50% human plasma was also calculated for various chymase-based engineered proteases.

[5] = test system: serpins; experiment: Serpin inhibition tests of chymase-based engineered proteases; type: biochemical
Method: Inhibition tests were carried out using chymase-based engineered proteases. Various serpins, which are capable of inhibiting protease activity, were used to test whether these could be used for adequate inhibition of the tested chymase-based engineered proteases, to enable selection of an engineered protease resistant to inhibition in plasma. All references in this Example to engineered proteases are depicted in chymotrypsin numbering. The chymotrypsin numbering key for the modified protease domains of engineered proteases are found in Tables 2, 4, and 6 for uPA, MTSP-1, and chymase, respectively.

T1 sequence (P00751 26-764): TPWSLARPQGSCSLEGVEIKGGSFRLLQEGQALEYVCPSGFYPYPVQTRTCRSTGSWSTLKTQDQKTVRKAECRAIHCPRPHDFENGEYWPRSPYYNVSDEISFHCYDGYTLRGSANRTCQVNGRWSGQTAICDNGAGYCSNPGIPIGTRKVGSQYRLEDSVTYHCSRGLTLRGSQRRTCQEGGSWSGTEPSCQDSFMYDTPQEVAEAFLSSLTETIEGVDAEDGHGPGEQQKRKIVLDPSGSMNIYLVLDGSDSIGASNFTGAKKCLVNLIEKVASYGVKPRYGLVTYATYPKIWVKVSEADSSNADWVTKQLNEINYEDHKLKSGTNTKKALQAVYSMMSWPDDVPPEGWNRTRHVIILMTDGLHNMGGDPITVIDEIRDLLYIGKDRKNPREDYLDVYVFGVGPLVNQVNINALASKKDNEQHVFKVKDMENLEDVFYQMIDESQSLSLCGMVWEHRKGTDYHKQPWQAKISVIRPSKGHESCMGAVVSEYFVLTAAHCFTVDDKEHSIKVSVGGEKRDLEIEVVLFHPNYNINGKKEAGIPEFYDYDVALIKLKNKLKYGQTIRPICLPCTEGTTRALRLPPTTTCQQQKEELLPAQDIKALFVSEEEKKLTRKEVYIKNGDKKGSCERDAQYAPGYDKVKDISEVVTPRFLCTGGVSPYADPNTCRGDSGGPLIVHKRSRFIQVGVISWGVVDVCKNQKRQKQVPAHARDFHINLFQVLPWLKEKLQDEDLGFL

Molecule | stability (remaining activity) in buffers, peptide substrate [1] | EC50 ([2]; Table 20, cleavage activity as of Table 10, unit inferred, read-out: EC50 Fb Cleavage) [nM] | EC50 ([2]; chymase-based engineered proteases, no plasma stated, read-out: fB Cleavage EC50) | EC50 [3] | t1/2 in 50% human plasma (min) (EGVD′AE)(SEQ ID NO: 13) [4] | kapp ([5]; Plasma Inhibitor: ACT) [M⁻¹ s⁻¹] | kapp ([5]; Plasma Inhibitor: alpha-2-marcroglobin (A2M)) [M⁻¹ s⁻¹]
B1 | loss of activity in all buffers |  |  |  |  |  | 
B2 |  | 170 | 151 to 182 nM and 177 nM | 6000 nM and 5620 nM | 7.3 min and 9.0 min | 428 | 645
